These results are taken from publication doi:10.1101/2021.01.18.427180 (bioRxiv, 2021).

Experiment [1] addresses recombinant human TLR2 (human, UniProt O60603). In words: flow cytometry of receptor-conjugated beads. (Flow cytometry measures light scatter and fluorescence of single cells or particles in a stream.)
In experiment [2] the target is T1, recombinant human CD14 (human, UniProt P08571 20-345).
T1 sequence: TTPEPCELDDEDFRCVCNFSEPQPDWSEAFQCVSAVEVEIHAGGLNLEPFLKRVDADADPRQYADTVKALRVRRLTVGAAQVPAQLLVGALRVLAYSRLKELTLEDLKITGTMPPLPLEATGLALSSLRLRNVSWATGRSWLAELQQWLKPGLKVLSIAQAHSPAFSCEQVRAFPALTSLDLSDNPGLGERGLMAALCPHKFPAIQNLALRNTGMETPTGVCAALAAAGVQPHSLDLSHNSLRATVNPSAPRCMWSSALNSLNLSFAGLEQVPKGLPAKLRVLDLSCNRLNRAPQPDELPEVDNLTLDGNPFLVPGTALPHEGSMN
Put plainly: flow cytometry of receptor-conjugated beads.

Chain of recombinant human TLR2 (O60603 21-588): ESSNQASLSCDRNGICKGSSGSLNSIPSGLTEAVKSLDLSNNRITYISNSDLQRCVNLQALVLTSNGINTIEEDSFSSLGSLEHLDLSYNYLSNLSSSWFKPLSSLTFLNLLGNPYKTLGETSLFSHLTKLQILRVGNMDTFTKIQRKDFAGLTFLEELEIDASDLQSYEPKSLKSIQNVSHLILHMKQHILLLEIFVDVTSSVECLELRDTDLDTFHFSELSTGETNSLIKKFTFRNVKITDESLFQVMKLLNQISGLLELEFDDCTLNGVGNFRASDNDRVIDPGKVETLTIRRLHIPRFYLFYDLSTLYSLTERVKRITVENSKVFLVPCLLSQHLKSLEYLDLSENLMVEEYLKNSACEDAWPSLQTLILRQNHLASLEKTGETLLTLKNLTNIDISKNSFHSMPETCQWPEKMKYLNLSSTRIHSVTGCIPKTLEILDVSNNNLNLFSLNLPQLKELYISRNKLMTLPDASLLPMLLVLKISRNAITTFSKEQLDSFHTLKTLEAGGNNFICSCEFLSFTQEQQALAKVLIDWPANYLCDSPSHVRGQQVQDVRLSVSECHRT

As to GGLSSVGGGS [KAMP-10], the binding result in experiment [1] and in experiment [2] was “binds” throughout.

As to RAIGGGLSSVGGGSSTIK [KAMP-18C], the binding result in experiment [1] and in experiment [2] was “binds” each time.
